Source: publication PMC6141180

Biological target: p38α (UniProt P47811)
Experiment: ITC
Conditions: reference: native TAB1 (1-438); sites S423

binding against the reference: same
Substance: TAB1 1-438 (from UniProt Q8CF89) pS423TAB1 (1-438), genetically encoded phosphoserine
